According to PMC11606445:

Biological target: PaNOMT9 (Phellodendron amurense)
Assay: crystal structure

For PaNOMT9 (enzyme), the stoichiometry N was 2.
